{"source": "paper PMC7668070", "about": "(2020)", "binders": {"B1": {"name": "HCoV-NL63 spike RBD (domain or fragment)", "chain": "QHTDINFTATASFGGSCYVCKPHQVNISLNGNTSVCVRTSHFSIRYIYNRVKSGSPGDSSWHIYLKSGTCPFSFSKLNNFQKFKTICFSTVEVPGSCNFPLEATWHYTSYTIVGALYVTWSEGNSITGVPYPVSGI"}}, "biological_target": "WT ACE2(740)-Fc (human, UniProt Q9BYF1 18-740)", "experiment": "BLI"}
{"binder": "B1", "values": [{"measurement": "Kd", "result": 22, "unit": "nM"}]}
